{
  "source": "patent US20080274100A1",
  "about": "(published 2008)",
  "key": {"GPIb on human platelets [1]": {"biological_target": "T1, GPIb on human platelets (human, UniProt P07359 17-652)", "T1 sequence (P07359 17-652)": "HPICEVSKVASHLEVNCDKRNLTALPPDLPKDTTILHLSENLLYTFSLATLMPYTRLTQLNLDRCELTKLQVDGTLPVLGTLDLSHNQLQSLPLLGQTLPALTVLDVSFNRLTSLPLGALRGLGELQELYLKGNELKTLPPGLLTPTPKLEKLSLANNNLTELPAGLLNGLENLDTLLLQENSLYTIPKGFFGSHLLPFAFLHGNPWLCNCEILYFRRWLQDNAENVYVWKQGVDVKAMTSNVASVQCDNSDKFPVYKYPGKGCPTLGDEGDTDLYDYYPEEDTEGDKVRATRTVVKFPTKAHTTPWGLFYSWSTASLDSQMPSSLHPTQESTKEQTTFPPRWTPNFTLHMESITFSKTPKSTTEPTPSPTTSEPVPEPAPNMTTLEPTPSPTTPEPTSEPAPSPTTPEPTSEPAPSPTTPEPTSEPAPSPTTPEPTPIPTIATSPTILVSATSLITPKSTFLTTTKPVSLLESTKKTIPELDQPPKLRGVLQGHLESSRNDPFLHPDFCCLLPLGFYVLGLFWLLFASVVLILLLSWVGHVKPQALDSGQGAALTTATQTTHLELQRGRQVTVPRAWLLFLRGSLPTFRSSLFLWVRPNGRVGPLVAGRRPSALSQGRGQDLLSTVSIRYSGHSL", "test": "cell-based or functional assay"}, "glycocalicin": {"biological_target": "T2, glycocalicin (UniProt P07359 17-506)", "T2 construct": "domain: glycocalicin (the outer membrane portion derived from GPIb); also called purified glycocalicin; purified GPIbα", "T2 sequence (P07359 17-506 limits assumed)": "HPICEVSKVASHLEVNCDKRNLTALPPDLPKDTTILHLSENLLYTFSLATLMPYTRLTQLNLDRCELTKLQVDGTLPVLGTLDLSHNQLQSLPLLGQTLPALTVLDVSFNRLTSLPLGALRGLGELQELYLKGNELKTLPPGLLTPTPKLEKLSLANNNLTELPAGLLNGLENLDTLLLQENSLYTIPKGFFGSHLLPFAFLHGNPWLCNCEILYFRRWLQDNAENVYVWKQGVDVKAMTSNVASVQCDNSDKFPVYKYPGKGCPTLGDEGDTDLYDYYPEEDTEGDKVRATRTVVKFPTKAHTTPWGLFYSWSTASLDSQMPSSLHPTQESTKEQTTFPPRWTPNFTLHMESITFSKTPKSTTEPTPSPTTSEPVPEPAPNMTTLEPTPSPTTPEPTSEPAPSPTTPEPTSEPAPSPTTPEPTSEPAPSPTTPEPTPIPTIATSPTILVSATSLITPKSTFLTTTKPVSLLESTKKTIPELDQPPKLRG", "test": "SPR (BIAcore 3000), glycocalicin immobilized on CM5 chip"}, "GPIb on human platelets [2]": {"biological_target": "T1, GPIb on human platelets", "test": "FACS on human platelets"}, "[3]": {"biological_target": "T3, platelet GPIb, guinea pig (guinea pig platelets) (guinea pig)", "T3 construct": "whole, on cells; also called guinea pig derived platelets", "test": "FACS on guinea pig platelets"}, "[4]": {"biological_target": "T4, human CCR5 on transfected L1.2 cells (human, UniProt P51681 1-352)", "T4 construct": "whole, on cells", "test": "flow cytometry, L1.2 cells transfected with human CCR5"}, "[5]": {"biological_target": "T5, CXCR4 point mutant Tyr-21 to alanine (UniProt P61073 1-352)", "T5 construct": "also called CXCR4 Y21A", "T5 sequence (P61073 other isoform, or with tags, fused parts or gaps mutant limits assumed)": "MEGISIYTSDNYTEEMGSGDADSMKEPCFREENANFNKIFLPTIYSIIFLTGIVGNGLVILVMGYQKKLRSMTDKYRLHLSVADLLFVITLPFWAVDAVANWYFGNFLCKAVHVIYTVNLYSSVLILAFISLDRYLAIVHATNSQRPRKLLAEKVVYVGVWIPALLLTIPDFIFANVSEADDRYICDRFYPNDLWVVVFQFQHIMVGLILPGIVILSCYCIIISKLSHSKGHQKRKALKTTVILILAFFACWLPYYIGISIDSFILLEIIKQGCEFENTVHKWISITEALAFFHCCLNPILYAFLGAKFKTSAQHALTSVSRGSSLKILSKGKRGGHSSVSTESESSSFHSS", "test": "epitope mapping with tyrosine-to-alanine point mutants of CXCR4"}},
  "data": [
    {"binder": "Y1 scFv (scFv) EVQLVESGGGVVRPGGSLRLSCAASGFTFDDYGMSWVRQAPGKGLEWVSGINWNGGSTGYADSVKGRFTISRDNAKNSLYLQMNSLRAEDTAVYYCARMRAPVIWGQGTLVTVSRGGGGSGGGGSGGGGSSELTQDPAVSVALGQTVRITCQGDSLRSYYASWYQQKPGQAPVLVIYGKNNRPSGIPDRFSGSSSGNTASLTITGAQAEDEADYYCNSRDSSGNHVVFGGGTKLTVLGAAAEQKLISEEDLNGAA", "values": [
      {"measurement": "inhibition of ristocetin-induced, vWF-dependent platelet aggregation in washed platelets (IC50)", "setting": "GPIb on human platelets [1]", "result": 0.8, "unit": "µM"},
      {"measurement": "Kd", "setting": "glycocalicin", "result": 450, "unit": "nM"},
      {"measurement": "koff", "setting": "glycocalicin", "result": 0.12, "unit": "s⁻¹"}
    ]},
    {"binder": "D1 scFv (scFv) scFv: EVQLVESGGGVVRPGGSLRLSCAASGFTFDLNPKVKHMWVRQAPGKGLEWVSGINWNGGSTGYADSVKGRFTISRDNAKNSLYLQMNSLRAEDTAVYYCARLRSPFGWGQGTLVTVSRGGGGSGGGGSGGGGSSELTQDPAVSVALGQTVRITCQGDSLRSYYASWYQQKPGQAPVLVIYGKNNRPSGIPDRFSGSSSGNTASLTITGAQAEDEADYYCNSRDSSGNHVVFGGGTKLTVLGAAAEQKLISEEDLNGAA", "values": [
      {"measurement": "fold binding capacity relative to Y1", "setting": "GPIb on human platelets [2]", "result": "~25", "unit": "fold"},
      {"measurement": "fold binding capacity relative to Y1", "setting": "[3]", "result": "~25", "unit": "fold"}
    ]},
    {"binder": "S11 scFv (scFv, also called scFv S11) scFv: EVQLVESGGGVVRPGGSLRLSCAASGFTFDLNPKVKHMWVRQAPGKGLEWVSGINWNGGSTGYADSVKGRFTISRDNAKNSLYLQMNSLRAEDTAVYYCARLRYPFFWGQGTLVTVSRGGGGSGGGGSGGGGSSELTQDPAVSVALGQTVRITCQGDSLRSYYASWYQQKPGQAPVLVIYGKNNRPSGIPDRFSGSSSGNTASLTITGAQAEDEADYYCNSRDSSGNHVVFGGGTKLTVLGAAAEQKLISEEDLNGAA", "values": [
      {"measurement": "fold binding capacity relative to Y1", "setting": "GPIb on human platelets [2]", "result": "~25", "unit": "fold"},
      {"measurement": "fold binding capacity relative to Y1", "setting": "[3]", "result": "~25", "unit": "fold"},
      {"measurement": "binding result", "setting": "[4]", "result": "binds"},
      {"measurement": "binding result", "setting": "[5]", "result": "no binding"}
    ]},
    {"binder": "S1 scFv (scFv) scFv: EVQLVESGGGVVRPGGSLRLSCAASGFTFDLNPKVKHMWVRQAPGKGLEWVSGINWNGGSTGYADSVKGRFTISRDNAKNSLYLQMNSLRAEDTAVYYCARLRPPFLWGQGTLVTVSRGGGGSGGGGSGGGGSSELTQDPAVSVALGQTVRITCQGDSLRSYYASWYQQKPGQAPVLVIYGKNNRPSGIPDRFSGSSSGNTASLTITGAQAEDEADYYCNSRDSSGNHVVFGGGTKLTVLGAAAEQKLISEEDLNGAA", "values": [
      {"measurement": "fold binding capacity relative to Y1", "setting": "[3]", "result": "~25", "unit": "fold"}
    ]}
  ]
}
